Like-named read-outs stand apart in the source and are kept apart here.
B1: response regulator from Agrobacterium fabrum (AtRR) (natural protein, Agrobacterium fabrum strain C58)
chain: MPELRPILLVEDNPRDLELTLTALEKCQLANEVVVARDGTEALDYLNVTGSHHNRPGGDPAVVLLDLKLPKVDGLEVLQTVKGSDHLRHIPVVMLTSSREEQDLVKSYELGVNAFVVKPVEFNQFFKAIQDLGVFWALLNE
B2: bacteriophytochrome from Deinococcus radiodurans (DrBphP) (natural protein, Deinococcus radiodurans strain R1, UniProt Q9RZA4 1-755, looked up)
chain: MSRDPLPFFPPLYLGGPEITTENCEREPIHIPGSIQPHGALLTADGHSGEVLQMSLNAATFLGQEPTVLRGQTLAALLPEQWPALQAALPPGCPDALQYRATLDWPAAGHLSLTVHRVGELLILEFEPTEAWDSTGPHALRNAMFALESAPNLRALAEVATQTVRELTGFDRVMLYKFAPDATGEVIAEARREGLHAFLGHRFPASDIPAQARALYTRHLLRLTADTRAAAVPLDPVLNPQTNAPTPLGGAVLRATSPMHMQYLRNMGVGSSLSVSVVVGGQLWGLIACHHQTPYVLPPDLRTTLEYLGRLLSLQVQVKEAADVAAFRQSLREHHARVALAAAHSLSPHDTLSDPALDLLGLMRAGGLILRFEGRWQTLGEVPPAPAVDALLAWLETQPGALVQTDALGQLWPAGADLAPSAAGLLAISVGEGWSECLVWLRPELRLEVAWGGATPDQAKDDLGPRHSFDTYLEEKRGYAEPWHPGEIEEAQDLRDTLTGALGERLSVIRDLNRALTQSNAEWRQYGFVISHHMQEPVRLISQFAELLTRQPRAQDGSPDSPQTERITGFLLRETSRLRSLTQDLHTYTALLSAPPPVRRPTPLGRVVDDVLQDLEPRIADTGASIEVAPELPVIAADAGLLRDLLLHLIGNALTFGGPEPRIAVRTERQGAGWSIAVSDQGAGIAPEYQERIFLLFQRLGSLDEALGNGLGLPLCRKIAELHGGTLTVESAPGEGSTFRCWLPDAGPLPGAADA
modifications: biliverdin IXα chromophore, thioether linkage to the conserved cysteine within the PAS domain

Tests used:
SEC [1] = target: the molecule itself; test: SEC
SEC [2] = target: the molecule itself; test: SEC; remark: listed apart in the source

| Protein | stoichiometry N (SEC [1]) | stoichiometry N (SEC [2]) |
| --- | --- | --- |
| B1 | 2 | – |
| B2 | – | 2 |

— publication doi:10.1101/2020.06.26.173310 (bioRxiv, 2020)
